Reference: patent US20100119506A1, “Effectors of PAR-2 Activation and Their Use in the Modulation of Inflammation” (BOEHRINGER INGELHEIM INTERNATIONAL GMBH, priority 2008, published 2010)
“Also recorded” adds a separate entry of the source.

Experiments:
FLAG-tagged PAR-2 = biological target: T1, FLAG-tagged PAR-2 (Homo sapiens, UniProt P55085); assay: FLAG-PAR-2 cell-based cleavage assay (flow cytometry); conditions: dHLX bivalent Fab; trypsin 30 nM, 5 minutes
T1 construct: expressed in transfected cells; host or cells: HEK
T1 sequence (P55085 26-397): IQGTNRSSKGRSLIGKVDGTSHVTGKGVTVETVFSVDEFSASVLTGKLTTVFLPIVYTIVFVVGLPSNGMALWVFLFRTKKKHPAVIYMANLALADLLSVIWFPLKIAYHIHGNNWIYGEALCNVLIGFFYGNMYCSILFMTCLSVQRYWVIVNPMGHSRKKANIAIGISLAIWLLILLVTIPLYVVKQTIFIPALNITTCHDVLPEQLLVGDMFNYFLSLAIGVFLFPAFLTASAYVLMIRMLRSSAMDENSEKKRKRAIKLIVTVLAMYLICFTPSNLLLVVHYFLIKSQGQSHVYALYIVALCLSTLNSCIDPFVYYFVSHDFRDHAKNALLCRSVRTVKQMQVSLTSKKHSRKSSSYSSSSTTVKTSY
Method: To assess the ability of antibody Ab3777 to block trypsin mediated cleavage of the PAR-2 N-terminus, antibodies were tested in a FRET assay that measures an increase in fluorescence upon cleavage of a labeled peptide representing the N-terminus of PAR-2. […] To assess the ability of antibodies to block trypsin mediated cleavage of the PAR-2 N-terminus on cells, HEK transfectants over-expressing FLAG-tagged PAR-2 were treated with trypsin in the presence or absence of Ab3777 dHLX bivalent Fabs. […]
Detection of the FLAG-tag on the cell surface correlates with inhibitory activity.

PAR-2 [1] = biological target: T2, PAR-2 (Homo sapiens, UniProt P55085); assay: Trypsin induced calcium response (FLIPR) in A549 cells; assay type: cell-based; design: expressing endogenous PAR-2; endogenous in cells; host or cells: A549; conditions: A549 cells
T2 sequence (P55085 26-397): T1 sequence (P55085 26-397)
Method: Using A549 cells, PAR-2 activation was measured by detecting the calcium response following trypsin stimulation. Fabs were tested in this assay for their ability to inhibit this response. […] Antibody concentrations are expressed as μg/ml (FIG. 6).
Thrombin activates PAR-1, whereas PAR-2 is activated by trypsin in A549 cells.

[2] = system: labeled peptide representing the N-terminus of PAR-2; assay: FRET-based PAR-2 peptide cleavage assay (trypsin); assay type: biochemical
Method: To assess the ability of antibody Ab3777 to block trypsin mediated cleavage of the PAR-2 N-terminus, antibodies were tested in a FRET assay that measures an increase in fluorescence upon cleavage of a labeled peptide representing the N-terminus of PAR-2. […] To assess the ability of antibodies to block trypsin mediated cleavage of the PAR-2 N-terminus on cells, HEK transfectants over-expressing FLAG-tagged PAR-2 were treated with trypsin in the presence or absence of Ab3777 dHLX bivalent Fabs. Activation of PAR-2 results in cleavage/internalization of the receptor resulting in a loss of the FLAG epitope as detected by an antibody in a flow cytometry assay (FIG. 3).
Affinity matured and cross-cloned antibodies in the IgG4_Pro format were evaluated for cell binding, inhibition of trypsin induced calcium responses in a FLIPR assay, inhibition of PAR-2 peptide cleavage in a FRET assay and inhibition of PAR-2 cleavage in a cell based assay system. All candidates show excellent apparent affinity (EC50) for PAR-2 transfected cells and maximal efficacy and potency in all short term cellular assays (Table 4).

PAR-2 [3] = assay: Affinity for PAR-2 in phage display selection and affinity maturation; assay type: binding; conditions: initial selection, Fab
Source text: Antibody phage display techniques were employed to pan for antibodies (Fab fragments) capable of immunospecifically binding to residues spanning the protease cleavage site at the N-terminal of PAR-2. […] The sequences of the heavy (IgG4) and light (lambda) chain variable regions of the antibody Ab3777 are presented below (CDR residues are underlined): […]

B1: Ab3777: parental anti-PAR-2 antibody from phage display; light chain SEQ ID NO:6, heavy chain SEQ ID NO:7 (antibody, V domains shown)
VH: QVQLVESGGGLVQPGGSLRLSCAASGFTFSSYAMNWVRQAPGKGLEWVSTISYSSSATSYADSVKGRFTISRDNSKNTLYLQMNSLRAEDTAVYYCARIQNDPMDVWGQGTLVTVSS
VL: DIELTQPPSVSVAPGQTARISCSGDNLGKKYVQWYQQKPGQAPVLVIYDDSNRPSGIPERFSGSNSGNTATLTISGTQAEDEADYYCSSWDVGSDGWVFGGGTKLTVLGQ
modifications: Antibody identified via phage display
inhibition in cellular cleavage assay (in words) (FLAG-tagged PAR-2): partial inhibition | activity in trypsin induced calcium response assay (in words) (PAR-2 [1]; IgG1 format): active but weaker | inhibition in trypsin induced calcium response assay (in words) (PAR-2 [1]; bivalent Fab format): partial dose-dependent inhibition | activity in trypsin induced calcium response assay (in words) (PAR-2 [1]; monovalent format): not active | inhibition of trypsin cleavage of PAR-2 peptide (in words) [2]: partial inhibition; also recorded: partially block this cleavage in a transient manner | Kd (PAR-2 [3]): 65 nM
